Values quoted from earlier work as cited in paper PMC5487894.
Where two headings read alike, the source gives them in different places.

Legend:
Rab5 (Homo sapiens) = Rab5 (Homo sapiens) (UniProt P20339)
[1] = target: CDC12 20-40 (Schizosaccharomyces pombe) (UniProt Q10059)
Rac (Homo sapiens) [2] = target: Rac (Homo sapiens) (UniProt P63000)
Rac (Homo sapiens) [3] = target: Rac (Homo sapiens) (UniProt P63000); remark: listed apart in the source

Chain of UniProt Q10059 (Q10059 20-40): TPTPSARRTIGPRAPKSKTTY
Chain of UniProt P20339 (P20339 whole entry): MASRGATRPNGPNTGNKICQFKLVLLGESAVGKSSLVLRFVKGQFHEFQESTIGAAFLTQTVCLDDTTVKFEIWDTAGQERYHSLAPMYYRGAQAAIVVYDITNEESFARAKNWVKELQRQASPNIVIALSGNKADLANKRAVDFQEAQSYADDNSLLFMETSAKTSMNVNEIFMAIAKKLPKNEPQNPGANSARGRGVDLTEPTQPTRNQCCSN

Substance: APPL1 BAR-PH (from UniProt Q9UKG1)
- Kd (Rab5 (Homo sapiens)): 900 nM

Substance: CDC15 F-BAR (from UniProt Q09822)
- Kd [1]: 2 nM

Substance: IRSp53 RCB domain (from UniProt Q9UQB8)
- Kd (Rac (Homo sapiens) [2]): 20000 nM
- Kd (Rac (Homo sapiens) [3]): 3000 nM
